# Assay results published in the supplement of paper PMC10567573.
# B1: CAMK2D (parent)
# chain: LLKHPNIVRLHDSISEEGFHYLVF
# Variants of: B1
# Assay: protein stability index of a GFP-peptide fusion (GPS, HEK-293T) (PSI 1-6); higher = more stable
# Conditions: c terminus: a fixed tail appended
# 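Note: lentivirally expressed fusions sorted by FACS into six bins by GFP to DsRed ratio, PSI derived from sequencing read proportions per bin multiplied by bin number.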
row,Variant,protein stability index
1,LLKHPNIVRLHGSISEEGFHYLVF,3.51
2,LLKHPNIVRLHASISEEGFHYLVF,2.96
3,LLKHPNIVRLHLSISEEGFHYLVF,2.47
4,LLKHPNIVRLHISISEEGFHYLVF,2.54
5,LLKHPNIVRLHFSISEEGFHYLVF,4.12
6,LLKHPNIVRLHKSISEEGFHYLVF,3.1
7,LLKHPNIVRLHTSISEEGFHYLVF,2.59
8,LLKHPNIVRLHYSISEEGFHYLVF,2.35
9,LLKHPLIVRLHDSISEEGFHYLVF,3.32
10,LLKHPQIVRLHDSISEEGFHYLVF,3.46
11,LLKHPSIVRLHDSISEEGFHYLVF,1.39
12,LLKHPKIVRLHDSISEEGFHYLVF,2.36
13,LLKHPFIVRLHDSISEEGFHYLVF,2.94
14,LLKHPHIVRLHDSISEEGFHYLVF,2.18
15,LLKHPPIVRLHDSISEEGFHYLVF,2.15
16,LLKHPNIVRLHDSISEEGFHYTVF,2.39
17,LLKHPNIVRLHDSISEEGFHYFVF,2.36
18,LLKHPNIVRLHDSISEEGFHYPVF,1.81
19,LLKHPNIVRLHDSISEEGFHYDVF,2.08
20,LLKHPNIVRLHDSISEEGFHYCVF,2.18
21,LLKHPNIVRLHDSISEEGFHYQVF,1.3
22,LLKHPNIVRLHDSISEEGFHYEVF,2.22
23,LLKHPNIVRLHDSISEEGFHYNVF,1.75
24,LLKHPNIVRLHDSISEEGFHYYVF,2.02

row,Variant,protein stability index
1,LLKHPNIVRLHDSISEEGFHYRVF,1.28
2,LLKHPNIVRLHDSISFEGFHYLVF,2.32
3,LLKHPNIVRLHDSISREGFHYLVF,1.67
4,LLKHPNIVRLHDSISWEGFHYLVF,1.92
5,LLKHPNIVRLHDSISCEGFHYLVF,2.3
6,LLKHPNIVRLHDSISMEGFHYLVF,2.71
7,LLKHPNIVRLHDSISEEYFHYLVF,1.8
8,LLKHPNIVRLHDSISEEMFHYLVF,2.1
9,LLKHPNIVRLHDSISEEWFHYLVF,1.61
10,LLKHPNIVRLHDSISEERFHYLVF,3.12
11,LLKHPNIVRLHDSISEEQFHYLVF,1.94
12,LLKHPNIVRLHDSISEEIFHYLVF,2
13,LLKHPNIVRLHDSISEEDFHYLVF,2.39
14,LLKHPNIVRLHDSISEEKFHYLVF,3.36
15,LLKHPNIVRLHDSISEEEFHYLVF,1.63
16,LLKHPNIVRIHDSISEEGFHYLVF,2.53
17,LLKHPNIVRCHDSISEEGFHYLVF,2.11
18,LLKHPNIVRQHDSISEEGFHYLVF,1.7
19,LLKHPNIVRYHDSISEEGFHYLVF,2.95
20,LLKHPNIVRRHDSISEEGFHYLVF,1.17
21,LLKHPNIVREHDSISEEGFHYLVF,2.5
22,LLKHPNIVRMHDSISEEGFHYLVF,3.69
23,LLKHPNIVRVHDSISEEGFHYLVF,1.75
24,LLKHPNIVRGHDSISEEGFHYLVF,1.36

row,Variant,protein stability index
1,LLKQPNIVRLHDSISEEGFHYLVF,1.06
2,LLKKPNIVRLHDSISEEGFHYLVF,3.21
3,LLKPPNIVRLHDSISEEGFHYLVF,1.67
4,LLKDPNIVRLHDSISEEGFHYLVF,1.77
5,LLKFPNIVRLHDSISEEGFHYLVF,1.88
6,LLKHPNIVRLHDSIREEGFHYLVF,2.66
7,LLKHPNIVRLHDSIPEEGFHYLVF,2.27
8,LLKHPNIVRLHDSIHEEGFHYLVF,2.1
9,LLKHPNIVRLHDSIVEEGFHYLVF,2.2
10,LLKHPNIVRLHDSIAEEGFHYLVF,2.19
11,LLKHPNIVRLHDSIWEEGFHYLVF,3.22
12,LLKHPNIVRLHDSISEEGFHYLRF,3.22
13,LLKHPNIVRLHDSISEEGFHYLQF,1.87
14,LLKHPNIVRLHDSISEEGFHYLDF,2.19
15,LLKHPNIVRLHDSISEEGFHYLKF,1.68
16,LLKHPNIVRLHDSISEEGFHYLGF,2.12
17,LLKHPNIVRLHDSISEEGFHYLFF,1.91
18,LLKHPNIVRLHDSISEEGFHYLIF,1.99
19,LLKHPNIVRLHDSISEEGFHYLPF,1.84
20,LLKHPNIVRLHDSISEEGFHYLSF,1.85
21,LLKHPNIVRLHDSISEEGFHYLTF,3.35
22,LLKHPNIVRLHDSISEEGFHYLYF,1.22
23,LLKHPNIVRLHDSISEEGFHYLNF,3.14
24,LLKHPNIVRLADSISEEGFHYLVF,2.57

row,Variant,protein stability index
1,LLKHPNIVRLKDSISEEGFHYLVF,3.01
2,LLKHPNIVRLFDSISEEGFHYLVF,1.96
3,LLKHPNIVRLDDSISEEGFHYLVF,2.39
4,LLKHPNIVRLPDSISEEGFHYLVF,2.42
5,LLKHPNIVRLIDSISEEGFHYLVF,2.7
6,LLKHPNIVRLWDSISEEGFHYLVF,2.62
7,LLKHPNIVRLQDSISEEGFHYLVF,2.07
8,LLKHPNIVRLHDSNSEEGFHYLVF,2.05
9,LLKHPNIVRLHDSDSEEGFHYLVF,1.64
10,LLKHPNIVRLHDSTSEEGFHYLVF,1.91
11,LLKHPNIVRLHDSRSEEGFHYLVF,1.75
12,LLKHPNIVRLHDSVSEEGFHYLVF,2.11
13,LLKHPNIVRLHDSASEEGFHYLVF,1.66
14,LLKHPNIVRLHDSCSEEGFHYLVF,2.44
15,LQKHPNIVRLHDSISEEGFHYLVF,1.76
16,LDKHPNIVRLHDSISEEGFHYLVF,2.09
17,LKKHPNIVRLHDSISEEGFHYLVF,3.35
18,LYKHPNIVRLHDSISEEGFHYLVF,1.83
19,LHKHPNIVRLHDSISEEGFHYLVF,1.44
20,LAKHPNIVRLHDSISEEGFHYLVF,2.92
21,LCKHPNIVRLHDSISEEGFHYLVF,2.36
22,LGKHPNIVRLHDSISEEGFHYLVF,2.37
